Experimental data published in patent publication US20210388087A1 (Chugai, published 2021).

Molecular target: T1, CD3 epsilon homodimer protein (UniProt P07766 23-126)
T1 construct: also called CD3 (CD3 epsilon)
Assay: SPR, antibody over immobilised CD3e homodimer;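 note: SPR at 25 °C with CD3 epsilon homodimer amine-coupled to a CM4 sensor chip and antibody flowed over as analyte in HBS-EP+ running buffer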

T1 sequence (P07766 23-126): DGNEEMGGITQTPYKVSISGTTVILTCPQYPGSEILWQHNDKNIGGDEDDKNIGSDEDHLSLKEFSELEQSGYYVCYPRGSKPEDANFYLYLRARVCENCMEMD

Binder	KD ratio to GLS3000
CE115HA000/GLS3000 H27dM (antibody, IgG1, name in Kabat numbering, V domains shown, one-arm IgG1) VH: QVQLVESGGGVVQPGRSLRLSCAASGFTFSNAWMHWVRQAPGKGLEWVAQIKAKSNNYATYYAESVKGRFTISRDDSKNSLYLQMNSLKTEDTAVYYCRYVHYGAYYGVDAWGQGTTVTVSS VL: DIVMTQSPLSLPVTPGEPASISCRSSQSLVMSNRNTYLHWYQQKPGQAPRLLIYKVSNRFSGVPDRFSGSGSGTDFTLKISRVEAEDVGVYYCGQGTQVPYTFGQGTKLEIK	3.43
CE115HA000/GLS3000 H27dW (antibody, IgG1, name in Kabat numbering, V domains shown, one-arm IgG1) VH: QVQLVESGGGVVQPGRSLRLSCAASGFTFSNAWMHWVRQAPGKGLEWVAQIKAKSNNYATYYAESVKGRFTISRDDSKNSLYLQMNSLKTEDTAVYYCRYVHYGAYYGVDAWGQGTTVTVSS VL: DIVMTQSPLSLPVTPGEPASISCRSSQSLVWSNRNTYLHWYQQKPGQAPRLLIYKVSNRFSGVPDRFSGSGSGTDFTLKISRVEAEDVGVYYCGQGTQVPYTFGQGTKLEIK	1.86
CE115HA000/GLS3000 H27dS (antibody, IgG1, name in Kabat numbering, V domains shown, one-arm IgG1) VH: QVQLVESGGGVVQPGRSLRLSCAASGFTFSNAWMHWVRQAPGKGLEWVAQIKAKSNNYATYYAESVKGRFTISRDDSKNSLYLQMNSLKTEDTAVYYCRYVHYGAYYGVDAWGQGTTVTVSS VL: DIVMTQSPLSLPVTPGEPASISCRSSQSLVSSNRNTYLHWYQQKPGQAPRLLIYKVSNRFSGVPDRFSGSGSGTDFTLKISRVEAEDVGVYYCGQGTQVPYTFGQGTKLEIK	3.05
CE115HA000/GLS3000 H27dQ (antibody, IgG1, name in Kabat numbering, V domains shown, one-arm IgG1) VH: QVQLVESGGGVVQPGRSLRLSCAASGFTFSNAWMHWVRQAPGKGLEWVAQIKAKSNNYATYYAESVKGRFTISRDDSKNSLYLQMNSLKTEDTAVYYCRYVHYGAYYGVDAWGQGTTVTVSS VL: DIVMTQSPLSLPVTPGEPASISCRSSQSLVQSNRNTYLHWYQQKPGQAPRLLIYKVSNRFSGVPDRFSGSGSGTDFTLKISRVEAEDVGVYYCGQGTQVPYTFGQGTKLEIK	7.48
CE115HA000/GLS3000 H27dT (antibody, IgG1, name in Kabat numbering, V domains shown, one-arm IgG1) VH: QVQLVESGGGVVQPGRSLRLSCAASGFTFSNAWMHWVRQAPGKGLEWVAQIKAKSNNYATYYAESVKGRFTISRDDSKNSLYLQMNSLKTEDTAVYYCRYVHYGAYYGVDAWGQGTTVTVSS VL: DIVMTQSPLSLPVTPGEPASISCRSSQSLVTSNRNTYLHWYQQKPGQAPRLLIYKVSNRFSGVPDRFSGSGSGTDFTLKISRVEAEDVGVYYCGQGTQVPYTFGQGTKLEIK	13000
CE115HA000/GLS3000 H27dV (antibody, IgG1, name in Kabat numbering, V domains shown, one-arm IgG1) VH: QVQLVESGGGVVQPGRSLRLSCAASGFTFSNAWMHWVRQAPGKGLEWVAQIKAKSNNYATYYAESVKGRFTISRDDSKNSLYLQMNSLKTEDTAVYYCRYVHYGAYYGVDAWGQGTTVTVSS VL: DIVMTQSPLSLPVTPGEPASISCRSSQSLVVSNRNTYLHWYQQKPGQAPRLLIYKVSNRFSGVPDRFSGSGSGTDFTLKISRVEAEDVGVYYCGQGTQVPYTFGQGTKLEIK	354
CE115HA000/GLS3000 H27dP (antibody, IgG1, name in Kabat numbering, V domains shown, one-arm IgG1) VH: QVQLVESGGGVVQPGRSLRLSCAASGFTFSNAWMHWVRQAPGKGLEWVAQIKAKSNNYATYYAESVKGRFTISRDDSKNSLYLQMNSLKTEDTAVYYCRYVHYGAYYGVDAWGQGTTVTVSS VL: DIVMTQSPLSLPVTPGEPASISCRSSQSLVPSNRNTYLHWYQQKPGQAPRLLIYKVSNRFSGVPDRFSGSGSGTDFTLKISRVEAEDVGVYYCGQGTQVPYTFGQGTKLEIK	9.21
CE115HA000/GLS3000 H27dN (antibody, IgG1, name in Kabat numbering, V domains shown, one-arm IgG1) VH: QVQLVESGGGVVQPGRSLRLSCAASGFTFSNAWMHWVRQAPGKGLEWVAQIKAKSNNYATYYAESVKGRFTISRDDSKNSLYLQMNSLKTEDTAVYYCRYVHYGAYYGVDAWGQGTTVTVSS VL: DIVMTQSPLSLPVTPGEPASISCRSSQSLVNSNRNTYLHWYQQKPGQAPRLLIYKVSNRFSGVPDRFSGSGSGTDFTLKISRVEAEDVGVYYCGQGTQVPYTFGQGTKLEIK	3.43
CE115HA000/GLS3000 H27dR (antibody, IgG1, name in Kabat numbering, V domains shown, one-arm IgG1) VH: QVQLVESGGGVVQPGRSLRLSCAASGFTFSNAWMHWVRQAPGKGLEWVAQIKAKSNNYATYYAESVKGRFTISRDDSKNSLYLQMNSLKTEDTAVYYCRYVHYGAYYGVDAWGQGTTVTVSS VL: DIVMTQSPLSLPVTPGEPASISCRSSQSLVRSNRNTYLHWYQQKPGQAPRLLIYKVSNRFSGVPDRFSGSGSGTDFTLKISRVEAEDVGVYYCGQGTQVPYTFGQGTKLEIK	2.35

More lines, now with the values ahead:

KD ratio to GLS3000	Binder
0.89	CE115HA000/GLS3000 H34I (antibody, IgG1, name in Kabat numbering, V domains shown, one-arm IgG1) VH: QVQLVESGGGVVQPGRSLRLSCAASGFTFSNAWMHWVRQAPGKGLEWVAQIKAKSNNYATYYAESVKGRFTISRDDSKNSLYLQMNSLKTEDTAVYYCRYVHYGAYYGVDAWGQGTTVTVSS VL: DIVMTQSPLSLPVTPGEPASISCRSSQSLVHSNRNTYLIWYQQKPGQAPRLLIYKVSNRFSGVPDRFSGSGSGTDFTLKISRVEAEDVGVYYCGQGTQVPYTFGQGTKLEIK
8.03	CE115HA000/GLS3000 H34E (antibody, IgG1, name in Kabat numbering, V domains shown, one-arm IgG1) VH: QVQLVESGGGVVQPGRSLRLSCAASGFTFSNAWMHWVRQAPGKGLEWVAQIKAKSNNYATYYAESVKGRFTISRDDSKNSLYLQMNSLKTEDTAVYYCRYVHYGAYYGVDAWGQGTTVTVSS VL: DIVMTQSPLSLPVTPGEPASISCRSSQSLVHSNRNTYLEWYQQKPGQAPRLLIYKVSNRFSGVPDRFSGSGSGTDFTLKISRVEAEDVGVYYCGQGTQVPYTFGQGTKLEIK
3.5	CE115HA000/GLS3000 H34F (antibody, IgG1, name in Kabat numbering, V domains shown, one-arm IgG1) VH: QVQLVESGGGVVQPGRSLRLSCAASGFTFSNAWMHWVRQAPGKGLEWVAQIKAKSNNYATYYAESVKGRFTISRDDSKNSLYLQMNSLKTEDTAVYYCRYVHYGAYYGVDAWGQGTTVTVSS VL: DIVMTQSPLSLPVTPGEPASISCRSSQSLVHSNRNTYLFWYQQKPGQAPRLLIYKVSNRFSGVPDRFSGSGSGTDFTLKISRVEAEDVGVYYCGQGTQVPYTFGQGTKLEIK
1.08	CE115HA000/GLS3000 H34G (antibody, IgG1, name in Kabat numbering, V domains shown, one-arm IgG1) VH: QVQLVESGGGVVQPGRSLRLSCAASGFTFSNAWMHWVRQAPGKGLEWVAQIKAKSNNYATYYAESVKGRFTISRDDSKNSLYLQMNSLKTEDTAVYYCRYVHYGAYYGVDAWGQGTTVTVSS VL: DIVMTQSPLSLPVTPGEPASISCRSSQSLVHSNRNTYLGWYQQKPGQAPRLLIYKVSNRFSGVPDRFSGSGSGTDFTLKISRVEAEDVGVYYCGQGTQVPYTFGQGTKLEIK
4.1	CE115HA000/GLS3000 H34K (antibody, IgG1, name in Kabat numbering, V domains shown, one-arm IgG1) VH: QVQLVESGGGVVQPGRSLRLSCAASGFTFSNAWMHWVRQAPGKGLEWVAQIKAKSNNYATYYAESVKGRFTISRDDSKNSLYLQMNSLKTEDTAVYYCRYVHYGAYYGVDAWGQGTTVTVSS VL: DIVMTQSPLSLPVTPGEPASISCRSSQSLVHSNRNTYLKWYQQKPGQAPRLLIYKVSNRFSGVPDRFSGSGSGTDFTLKISRVEAEDVGVYYCGQGTQVPYTFGQGTKLEIK
1.98	CE115HA000/GLS3000 H27dY (antibody, IgG1, name in Kabat numbering, V domains shown, one-arm IgG1) VH: QVQLVESGGGVVQPGRSLRLSCAASGFTFSNAWMHWVRQAPGKGLEWVAQIKAKSNNYATYYAESVKGRFTISRDDSKNSLYLQMNSLKTEDTAVYYCRYVHYGAYYGVDAWGQGTTVTVSS VL: DIVMTQSPLSLPVTPGEPASISCRSSQSLVYSNRNTYLHWYQQKPGQAPRLLIYKVSNRFSGVPDRFSGSGSGTDFTLKISRVEAEDVGVYYCGQGTQVPYTFGQGTKLEIK
1.18	CE115HA000/GLS3000 H34A (antibody, IgG1, name in Kabat numbering, V domains shown, one-arm IgG1) VH: QVQLVESGGGVVQPGRSLRLSCAASGFTFSNAWMHWVRQAPGKGLEWVAQIKAKSNNYATYYAESVKGRFTISRDDSKNSLYLQMNSLKTEDTAVYYCRYVHYGAYYGVDAWGQGTTVTVSS VL: DIVMTQSPLSLPVTPGEPASISCRSSQSLVHSNRNTYLAWYQQKPGQAPRLLIYKVSNRFSGVPDRFSGSGSGTDFTLKISRVEAEDVGVYYCGQGTQVPYTFGQGTKLEIK
1.03	CE115HA000/GLS3000 H34L (antibody, IgG1, name in Kabat numbering, V domains shown, one-arm IgG1) VH: QVQLVESGGGVVQPGRSLRLSCAASGFTFSNAWMHWVRQAPGKGLEWVAQIKAKSNNYATYYAESVKGRFTISRDDSKNSLYLQMNSLKTEDTAVYYCRYVHYGAYYGVDAWGQGTTVTVSS VL: DIVMTQSPLSLPVTPGEPASISCRSSQSLVHSNRNTYLLWYQQKPGQAPRLLIYKVSNRFSGVPDRFSGSGSGTDFTLKISRVEAEDVGVYYCGQGTQVPYTFGQGTKLEIK
3.16	CE115HA000/GLS3000 H34M (antibody, IgG1, name in Kabat numbering, V domains shown, one-arm IgG1) VH: QVQLVESGGGVVQPGRSLRLSCAASGFTFSNAWMHWVRQAPGKGLEWVAQIKAKSNNYATYYAESVKGRFTISRDDSKNSLYLQMNSLKTEDTAVYYCRYVHYGAYYGVDAWGQGTTVTVSS VL: DIVMTQSPLSLPVTPGEPASISCRSSQSLVHSNRNTYLMWYQQKPGQAPRLLIYKVSNRFSGVPDRFSGSGSGTDFTLKISRVEAEDVGVYYCGQGTQVPYTFGQGTKLEIK
2.84	CE115HA000/GLS3000 H34N (antibody, IgG1, name in Kabat numbering, V domains shown, one-arm IgG1) VH: QVQLVESGGGVVQPGRSLRLSCAASGFTFSNAWMHWVRQAPGKGLEWVAQIKAKSNNYATYYAESVKGRFTISRDDSKNSLYLQMNSLKTEDTAVYYCRYVHYGAYYGVDAWGQGTTVTVSS VL: DIVMTQSPLSLPVTPGEPASISCRSSQSLVHSNRNTYLNWYQQKPGQAPRLLIYKVSNRFSGVPDRFSGSGSGTDFTLKISRVEAEDVGVYYCGQGTQVPYTFGQGTKLEIK
1.22	CE115HA000/GLS3000 H34P (antibody, IgG1, name in Kabat numbering, V domains shown, one-arm IgG1) VH: QVQLVESGGGVVQPGRSLRLSCAASGFTFSNAWMHWVRQAPGKGLEWVAQIKAKSNNYATYYAESVKGRFTISRDDSKNSLYLQMNSLKTEDTAVYYCRYVHYGAYYGVDAWGQGTTVTVSS VL: DIVMTQSPLSLPVTPGEPASISCRSSQSLVHSNRNTYLPWYQQKPGQAPRLLIYKVSNRFSGVPDRFSGSGSGTDFTLKISRVEAEDVGVYYCGQGTQVPYTFGQGTKLEIK
2100	CE115HA000/GLS3000 H34D (antibody, IgG1, name in Kabat numbering, V domains shown, one-arm IgG1) VH: QVQLVESGGGVVQPGRSLRLSCAASGFTFSNAWMHWVRQAPGKGLEWVAQIKAKSNNYATYYAESVKGRFTISRDDSKNSLYLQMNSLKTEDTAVYYCRYVHYGAYYGVDAWGQGTTVTVSS VL: DIVMTQSPLSLPVTPGEPASISCRSSQSLVHSNRNTYLDWYQQKPGQAPRLLIYKVSNRFSGVPDRFSGSGSGTDFTLKISRVEAEDVGVYYCGQGTQVPYTFGQGTKLEIK
